Assay results reported in article PMC3326528.
Changes are numbered by the printed parent chain. In names and notes the source's numbering stands.

B1: T80A (Streptantibioticus cattleyicolor; T80A) (protein)
chain: AANSTRRPIIAFMSDLGTTDDSVAQCKGLMYSICPDVTVVDVCHSMTPWDVEEGARYIVDLPRFFPEGTVFATTTYPAAGTTTRSVAVRIKQAAKGGARGQWAGSGAGFERAEGSYIYIAPNNGLLTTVLEEHGYLEAYEVTSPKVIPEQPEPTFYSREMVAIPSAHLAAGFPLSEVGRPLEDHEIVRFNRPAVEQDGEALVGVVSAIDHPFGNVWTNIHRTDLEKAGIGYGARLRLTLDGVLPFEAPLTPTFADAGEIGNIAIYLNSRGYLSIARNAASLAYPYHLKEGMSARVEAR
B2: S158A (Streptantibioticus cattleyicolor; S158A) (protein)
chain: B1 chain with A79T, S157A
B3: T80S (Streptantibioticus cattleyicolor; T80S) (protein)
chain: B1 chain with A79S
B4: S158G (Streptantibioticus cattleyicolor; S158G) (protein)
chain: B1 chain with A79T, S157G

Each protein was assayed on C[S+](CC[C@H](N)C(=O)[O-])C[C@H]1O[C@@H](n2cnc3c(N)ncnc32)[C@H](O)[C@@H]1O (assay: Discontinuous HPLC assay of 5′-FDA formation with SAM varied at 200 mM fluoride). Conditions: pH 7.8; 25.0 °C.
Type: biochemical

| Protein | Km | kcat |
| --- | --- | --- |
| B1 | 3.0 ± 0.4 µM | 8.33e-05 ± 3.33e-06 s⁻¹ |
| B2 | 9.2 ± 1.2 µM | 0.00015 ± 1e-05 s⁻¹ |
| B3 | 4.7 ± 0.4 µM | 0.001 ± 3.33e-05 s⁻¹ |
| B4 | 0.8 ± 0.5 µM | 1.17e-05 ± 5e-07 s⁻¹ |
